From the RNAGym collection of RNA variant scans (doi:10.1073/pnas.2313332121)

B1: TPR t1 (parent)
chain: GACCAAUCUGCCCUCAGAGCUCGAGAACAUCUUCGGAUGCAGAGGAGGCAGGCUUCGGUGGCGCGAUAGCGCCAACGUCCUCAACCUCCAAUGCAUCCCACCACAUGAUGAUGCCUGAAGAGCCUUGGUUUUUUG

Variants of: B1
Assay: polymerase ribozyme fitness, log enrichment relative to wild type (log ratio); higher = more active; in vitro selection for triplet polymerase activity
Summary of the method: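 Mutant libraries for each subunit of a heterodimeric triplet polymerase ribozyme were made by PCR and then transcribed. Each library underwent one round of in vitro selection in triplicate: annealing with a biotinylated primer, the partner subunit and triplets, frozen incubation at −7 °C, gel excision of extended constructs, streptavidin-bead capture and RT-PCR. Input and output libraries were Illumina-sequenced, and only genotypes with ≥10 input reads and ≥1 read per output were kept. Fitness is the logarithm, base 2, of genotype enrichment over wild-type enrichment, computed from inverse-variance-weighted replicate averages.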

| Variant | polymerase ribozyme fitness (log ratio) |
| --- | --- |
| C13U C70A A84U | -1.83 |
| C13U C72G A74U G93A C114G | -4.31 |
| C13U C72G C85G C123U | -0.494 |
| C13U C72U U92C A105G | -5.23 |
| C13U C73G A83G | -1.22 |
| C13U C73U | -0.351 |
| C13U C76A | -0.633 |
| C13U C82G | 0.0764 |
| C13U C82G A90U C104A | -5.14 |
| C13U C82U A83G A118U | -1.83 |
| C13U C98A C115U | -5.17 |
| C13U C102A | -2.14 |
| C13U C104A | -1.47 |
| C13U C123U | 1.41 |
| C13U C123U U132A | 1.91 |
| C13U C124U | 1.96 |
| C13U G17U | -2.37 |
| C13U G19C G48U | -3.4 |
| C13U G19U G52U | -2.98 |
| C13U G19U G52U C64U | -3.78 |
| C13U G35A C86G | -3.98 |

| Variant | polymerase ribozyme fitness (log ratio) |
| --- | --- |
| C13U G35A G48A U59C C86U G120U | -5.19 |
| C13U G35U | -3.47 |
| C13U G36A C88U | -0.556 |
| C13U G39A A68C A91G C123A | -7.34 |
| C13U G39A G58U C79G C97U | -2.64 |
| C13U G39U G61C | -1.9 |
| C13U G42U | -1.12 |
| C13U G42U C70U A121C | 0.0681 |
| C13U G44A A50C G63A C85A | -3.07 |
| C13U G44U C56A | -1.59 |
| C13U G45U C56G U87A | -3.44 |
| C13U G45U G60C C82U | -0.444 |
| C13U G47C C72G G110A | -3.24 |
| C13U G47C C73A C99U | -4.72 |
| C13U G48A C56A G71A A90G | -4.36 |
| C13U G52C C94G A100U G113A | -2.95 |
| C13U G60C | -0.502 |
| C13U G60C C82U U96G | -1.02 |
| C13U G61C | -1.59 |
| C13U G63A C64U | -4.34 |
| C13U G63A U78C | -0.503 |

| Variant | polymerase ribozyme fitness (log ratio) |
| --- | --- |
| C13U G63C | -0.36 |
| C13U G63U | -0.742 |
| C13U G63U A90U G117C | -5.21 |
| C13U G69U G93A U126C | -0.75 |
| C13U G93A C114G | -2.39 |
| C13U G93C | -0.682 |
| C13U G110U | -1.02 |
| C13U G113U | -2.4 |
| C13U G117A | -1.27 |
| C13U G135U | -0.441 |
| C13U U14A A27U G47C | -6.21 |
| C13U U14A G71A C82G | -2.67 |
| C13U U21A A27G G61C C99U | -6.29 |
| C13U U21C C64U | -0.0953 |
| C13U U21C C80U A90U | -1.82 |
| C13U U30C C56U A121C U130G | -1.57 |
| C13U U32C G93C A95G | -1.09 |
| C13U U33G G69U C104G G120A U125C | -6.78 |
| C13U U55A C88U | -0.31 |
| C13U U55A G61C A84U C85G A95G U125G G128U | -3.92 |
| C13U U55G A91G | -0.322 |

| Variant | polymerase ribozyme fitness (log ratio) |
| --- | --- |
| C13U U55G C79U | 0.324 |
| C13U U59A U81C | -0.938 |
| C13U U59C C70G | -4.01 |
| C13U U78A | 0.102 |
| C13U U92C C104U | -1.33 |
| C13U U96A | -1.11 |
| C13U U112C | 1.07 |
| U14A A18C G113A C123U | -4.67 |
| U14A A18U C31G U38G G107A C124A | -6.73 |
| U14A A18U C73A G77C A119U | -3.61 |
| U14A A29G G113A | -5.5 |
| U14A A37U G93U U132A | -4.47 |
| U14A A41C | -4.27 |
| U14A A43G G58A C86U | -4.43 |
| U14A A46C G69A C101U G110U U126A | -6.24 |
| U14A A46C U112A A119G G122C | -0.328 |
| U14A A50C U125G | -3.97 |
| U14A A74C C76A A121C | -1.88 |
| U14A A74G G117U | -4.7 |
| U14A C22A C101A U116G C124U | -5.17 |
